# Assay results published in the supplement of paper PMC10201428.
# ± gives the standard deviation of the averaged measurements.
# Tested on: VchCAST RNA-guided transposition machinery (E. coli BL21(DE3) host, lacZ target)
# Test: relative integration efficiency (T-LR orientation) vs wild-type transposon end (log2 (normalized fold change)); transposon end mutated: right end (5 bp flank + 75 bp right end); higher = more efficient transposition
# Outline: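 Co-transformation of E. coli BL21(DE3) combined a pUC57 mini-transposon donor, holding barcoded pools of 1549 left-end or 1849 right-end variants, with a T7-driven plasmid encoding a CRISPR array, tniQ-cas8-cas7-cas6 and tnsA-tnsB-tnsC. After plating with 0.1 mM IPTG at 37°C for 18 h, input plasmids and genomic integration junctions were PCR-amplified and Illumina-sequenced across two biological output replicates, with four reference barcodes. Relative integration efficiency is the normalised, log-transformed output/input barcode fold change.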
row,Sequence,relative integration efficiency (log2)
1,ACATTAGTCGATACAACCATAAAATGATAATTACACCCATAAATTGATAATTATCACACCCAATTTAACTATAACGCTCTGATCATAGTCAGACCAACATTGCTACGACCCGTATTCGCACCGACAC,-5.9 ± 1.5
2,ACATTTGTTGATCCAACCATAAAATGATAATTACACCCATAAATGGATCATTATCACACCCAATTTAACTATAACGCTCTGATCATAGTCAGACCAACATTGCTACGACCCGTATTCGCACCGACAC,1.13 ± 0.26
3,ACATTTGTCGATACAACCATAAAACGATAATTACACCCATAAATTCATAATTATCACACCCAATTTAACTATAACGCTCTGATCATAGTCAGACCAACATTGCTACGACCCGTATTCGCACCGACAC,1.06 ± 0.15
4,ACATTTGTTGATACAACCATAAAATGATAATTAATAATTCACCCATAAATTGATAATTATCAACAAACGCCCGGTCGCGGTACTCTGATCATAGTCAGACCAACATTGCTACGACCCGTATTCGCAC,1.02 ± 0.13
5,ACATTTGTTGATACACCCATAAATTGATAATTACAACCATAAAATGATAATTATCACAACCATAAGTTGATATTTTCTCTGATCATAGTCAGACCAACATTGCTACGACCCGTATTCGCACCGACAC,-0.36 ± 0.66
6,ACATTTGTTGATACAACCATAAAATGATAATTACACCCATAAATTGATAATTATCACACCCATAAATTGATCTCTGATCATAGTCAGACCAACATTGCTACGACCCGTATTCGCACCGACACTGACT,0.731 ± 0.26
7,ACATTTGTTGATACAACCATAAAATGATAATTAATAATTATTTATCACCCATAAATTGATAATTATCACACCCATAAATTGATATTGCCTCTGATCATAGTCAGACCAACATTGCTACGACCCGTAT,-2.04 ± 0.35
8,ACATTTGTTGATACAACCATAAAGTGATATTTACACCCATAAATTGATAATTATCACAACCATATATTGATATCTCCTCTGATCATAGTCAGACCAACATTGCTACGACCCGTATTCGCACCGACAC,-0.0754 ± 0.42
9,ACATTTGTTGATACAACCATATAATGATAATAACACCCATAAAATGATAATTATCACACCCAATTTAACTATAACGCTCTGATCATAGTCAGACCAACATTGCTACGACCCGTATTCGCACCGACAC,2.16 ± 0.14
10,ACATTTGTTGATACAACCATAAAATGATAATTAATAATTATTTATACACCCATAAATTGATAATTATCAACAAACGCCCGGTCGCGGTACTCTGATCATAGTCAGACCAACATTGCTACGACCCGTA,0.401 ± 0.042
11,ACATTTGTTGATACAACCATAAAATGATAATTACACCCATAAATTGATAATTATCACACCCATAAATTGATATTGCCTCTGATCATAGTCAGCTGAAGCGAGACACCGACCAACATTGCACCGACAC,-0.204 ± 0.33
12,ACATTTGTGGATACAACCCTAAAATGATAATTACACCCATAAATGGATAATTATCACCCCCAATTTAACTATAACGCTCTGATCATAGTCAGACCAACATTGCTACGACCCGTATTCGCACCGACAC,-1.16 ± 0.27
13,ACATTTGTTTATACAACCATAAAATGATAATTACACCCATAAATGGATAATTATCACACCCAATTTAACTATAACGCTCTGATCATAGTCAGACCAACATTGCTACGACCCGTATTCGCACCGACAC,-0.232 ± 0.5
14,ACATTAGTGGATACAACCATAAAATGATAATTACACCCATAAATTGATAATTATCACACCCAATTTAACTATAACGCTCTGATCATAGTCAGACCAACATTGCTACGACCCGTATTCGCACCGACAC,-3.09 ± 0.75
15,ACATTTGTTGATACAACCATAAAATGATCCGGACACCCATAAATTGATAATTATCACACCCATAAATTGATATTGCCTCTGATCATAGTCAGACCAACATTGCTACGACCCGTATTCGCACCGACAC,-0.898 ± 0.013
16,ACATTTGTTGATACAACCATAAAATGATAATTACACCCATAAATTGATATCACACCCATAAATTGATATTGCCTCTGATCATAGTCAGACCAACATTGCTACGACCCGTATTCGCACCGACACTGAC,2.45 ± 0.18

row,Sequence,relative integration efficiency (log2)
1,ACATTTGTTGATACAACCATAAAATGATAATTACACCCCGAAATTGATAATTATCACACCCATAAATTGATATTGCCTCTGATCATAGTCAGACCAACATTGCTACGACCCGTATTCGCACCGACAC,-2.51 ± 0.16
2,ACATTTGTTGATACAACCATATATTGATATCTCCAACCATATATTGATATCTCTCAGTGGGTATTTAACTATAACGCTCTGATCATAGTCAGACCAACATTGCTACGACCCGTATTCGCACCGACAC,2.41 ± 0.14
3,ACATTTGTTGATACAACCATAAAATGATAATTACCACCCCTACATTGATAATTATCACACCCATTTAACTATAACGCTCTGATCATAGTCAGACCAACATTGCTACGACCCGTATTCGCACCGACAC,-0.0894 ± 0.12
4,ACATTTGTTGATACAACCATAAAATGATAATTACACCCATAAATTGATAATTATCACACCCATAAATTGATATTGCCTCTGGCTAGCATTGTACCTAGGACTGAGCTAGCCATAAACGCACCGACAC,0.293 ± 0.3
5,ACATTTGTTGATACAACCATAAAATGATAATTAATACACCCATAAATTGATAATTATCACACCCATAAATTGATATTGCCTCTGATCATAGTCAGACCAACATTGCTACGACCCGTATTCGCACCGA,-0.393 ± 0.24
6,ACATTTGTTGATACAACCATAATTTGATAATTACACCCATAAATTGATAATTATCACACCCATAAATTGATATTGCCTCTGATCATAGTCAGACCAACATTGCTACGACCCGTATTCGCACCGACAC,-0.168 ± 0.26
7,ACATTTGTTGATACAACCATAAAATGGTAATTACACCCCTACATTGATAATTATCACACCCAATTTAACTATAACGCTCTGATCATAGTCAGACCAACATTGCTACGACCCGTATTCGCACCGACAC,-0.856 ± 0.38
8,ACATTTGTTGATACCACCATCAAATGATAATTACACCCCTAAATTGATAATTATCACACCCAATTTAACTATAACGCTCTGATCATAGTCAGACCAACATTGCTACGACCCGTATTCGCACCGACAC,-1.78 ± 0.038
9,ACATTTGTTGATACAACCATAAAATGATAATTACACCCATAAATTGATAATTATCACTGGGATAAATTGATATTGCCTCTGATCATAGTCAGACCAACATTGCTACGACCCGTATTCGCACCGACAC,2.07 ± 0.067
10,ACATTTGTTGATACAACCATATATTGATATCTCCACCCATAAATTGATAATTATCACAACCATAAAGTGATATTTACTCTGATCATAGTCAGACCAACATTGCTACGACCCGTATTCGCACCGACAC,-0.378 ± 0.45
11,ACATTTGTTGATACAACCATAAAACGATAATTACACCCATAAATTGATCATTATCACACCCAATTTAACTATAACGCTCTGATCATAGTCAGACCAACATTGCTACGACCCGTATTCGCACCGACAC,1.86 ± 0.099
12,ACATTTGTTGATACAACCATTAAATGATAATTACACCCATAATTTGATAATTATCACACCCAATTTAACTATAACGCTCTGATCATAGTCAGACCAACATTGCTACGACCCGTATTCGCACCGACAC,2.23 ± 0.16
13,ACATTTGTTGATACAACCATAAAATGATAATTACACCCATAAATTGATAATTATCACACCCATCCCGGTCGCGGTAAGAGGATCATAGTCAGACCAACATTGCTACGACCCGTATTCGCACCGACAC,2.36 ± 0.21
14,ACATTTGTTGATACAACCATAAAATGATAATTACACCCATAAATTGATAATTATCACACCCATAAATGTCGCGGTAAGAGGATCATAGTCAGACCAACATTGCTACGACCCGTATTCGCACCGACAC,2.19 ± 0.15
15,ACATTTGTTGATACAACCATAAAATGATAATTAATAATTATCACCCATAAATTGATAATTATCAACAAACGCCCGGTCGCGGTACTCTGATCATAGTCAGACCAACATTGCTACGACCCGTATTCGC,-0.012 ± 0.0046
16,ACATTTGTTGATACACCCATAAATTGATAATTACAACCATATATTGATATCTCTCACACCCATAAATTGATAATTACTCTGATCATAGTCAGACCAACATTGCTACGACCCGTATTCGCACCGACAC,0.157 ± 0.34
